Experimental data: patent US20210261671A1 (HARPOON THERAPEUTICS, published 2021)

Columns and labels:
[1] = molecular target: T1, anti-FLT3/anti-albumin/anti-CD3 multispecific protein containing humanized FLH19C; assay: biolayer interferometry (data not shown)
T1 construct: trispecific single-chain fusion with His6; purified from CHO conditioned medium

[2] = molecular target: T2, human FLT3 protein (human, UniProt P36888 27-541, limits assumed); assay: colorimetric ELISA, periplasmic extract
T2 construct: protein coated in the screening ELISA; also called ELISA FLT3
Text: (§1) Llamas were immunized with purified FLT3 protein expressed in Expi293 cells. A phage display library for expression of heavy variable antibody domains was constructed from circulating B cells isolated from the immunized llamas (See van der Linden, de Geus, Stok, Bos, van Wassenaar, Verrips, and Frenken. 2000. J Immunol Methods 240:185-195). Phage clones were screened for binding to FLT3 by expressing llama anti-FLT3 proteins in E. coli, preparing periplasmic extracts, and performing colorimetric ELISAs.

[3] = molecular target: T2, human FLT3 protein; assay: colorimetric ELISA, signal over control wells lacking FLT3
Text: as §1

[4] = molecular target: T3, anti-FLT3/anti-albumin/anti-CD3 multispecific protein containing humanized FLH107; assay: BLI (Octet), biotinylated FLT3 on streptavidin tips
T3 construct: trispecific single-chain fusion with His6; purified from CHO conditioned medium
Method: (§2) The affinities of the purified multispecific proteins for human and cynomolgus FLT3 were measured with an Octet instrument with streptavidin tips were loaded with biotinylated human or cynomolgus FLT3 protein. The tips were then incubated with solutions containing 50, 16.7, 5.6, or 1.9 nM of the multispecific protein. Affinities (KD), listed in Table 7, were calculated by measuring the on rate and off rate of binding of anti-FLT3/anti-albumin/anti-CD3 multispecific proteins to the captured biotinylated FLT3 proteins.

[5] = molecular target: T4, anti-FLT3/anti-albumin/anti-CD3 multispecific protein containing humanized FLH141; assay: as above
T4 construct: trispecific single-chain fusion with His6; purified from CHO conditioned medium
Method: as §2

[6] = molecular target: T1, anti-FLT3/anti-albumin/anti-CD3 …; assay: as above
Method: as §2

[7] = molecular target: T5, anti-FLT3/anti-albumin/anti-CD3 multispecific protein containing humanized FLH34; assay: as above
T5 construct: trispecific single-chain fusion with His6; purified from CHO conditioned medium
Method: as §2

[8] = molecular target: T6, anti-FLT3/anti-albumin/anti-CD3 multispecific protein containing humanized FLH4; assay: as above
T6 construct: trispecific single-chain fusion with His6; purified from CHO conditioned medium
Method: as §2

[9] = molecular target: T7, anti-FLT3/anti-albumin/anti-CD3 multispecific protein containing humanized FLH78; assay: as above
T7 construct: trispecific single-chain fusion with His6; purified from CHO conditioned medium
Method: as §2

[10] = molecular target: T8, anti-FLT3/anti-albumin/anti-CD3 multispecific protein containing humanized FLH92a; assay: as above
T8 construct: trispecific single-chain fusion with His6; purified from CHO conditioned medium
Method: as §2

[11] = molecular target: T9, anti-FLT3/anti-albumin/anti-CD3 multispecific protein containing humanized FLH92b; assay: as above
T9 construct: trispecific single-chain fusion with His6; purified from CHO conditioned medium
Method: as §2

[12] = molecular target: T10, anti-FLT3/anti-albumin/anti-CD3 multispecific protein containing FLL8; assay: BLI (Octet), conditioned medium, single 50 nM concentration (relative affinity)
T10 construct: trispecific single-chain fusion with His6; Expi293 conditioned medium
Method: (§3) Additional affinity determinations were performed using conditioned media from Example 2 with known concentrations of anti-FLT3/anti-CD3 multispecific proteins. […] An Octet instrument with streptavidin tips were loaded with biotinylated human or cynomolgus FLT3 protein, and KD values for binding FLT3 were calculated by measuring the on rate and off rate of binding of anti-FLT3/anti-CD3 multispecific proteins to the biotinylated FLT3 proteins.

[13] = molecular target: T11, anti-FLT3/anti-albumin/anti-CD3 multispecific protein containing FLL41; assay: as above
T11 construct: trispecific single-chain fusion with His6; Expi293 conditioned medium
Method: as §3

[14] = molecular target: T12, anti-FLT3/anti-albumin/anti-CD3 multispecific protein containing FLL71; assay: as above
T12 construct: trispecific single-chain fusion with His6; Expi293 conditioned medium
Method: as §3

[15] = molecular target: T13, anti-FLT3/anti-albumin/anti-CD3 multispecific protein containing FLL92; assay: as above
T13 construct: trispecific single-chain fusion with His6; Expi293 conditioned medium
Method: as §3

[16] = molecular target: T14, anti-FLT3/anti-albumin/anti-CD3 multispecific protein containing FLL134; assay: as above
T14 construct: trispecific single-chain fusion with His6; Expi293 conditioned medium
Method: as §3

[17] = molecular target: T15, anti-FLT3/anti-albumin/anti-CD3 multispecific protein containing FLL153; assay: as above
T15 construct: trispecific single-chain fusion with His6; Expi293 conditioned medium
Method: as §3

T1 sequence (chain, as listed by the source): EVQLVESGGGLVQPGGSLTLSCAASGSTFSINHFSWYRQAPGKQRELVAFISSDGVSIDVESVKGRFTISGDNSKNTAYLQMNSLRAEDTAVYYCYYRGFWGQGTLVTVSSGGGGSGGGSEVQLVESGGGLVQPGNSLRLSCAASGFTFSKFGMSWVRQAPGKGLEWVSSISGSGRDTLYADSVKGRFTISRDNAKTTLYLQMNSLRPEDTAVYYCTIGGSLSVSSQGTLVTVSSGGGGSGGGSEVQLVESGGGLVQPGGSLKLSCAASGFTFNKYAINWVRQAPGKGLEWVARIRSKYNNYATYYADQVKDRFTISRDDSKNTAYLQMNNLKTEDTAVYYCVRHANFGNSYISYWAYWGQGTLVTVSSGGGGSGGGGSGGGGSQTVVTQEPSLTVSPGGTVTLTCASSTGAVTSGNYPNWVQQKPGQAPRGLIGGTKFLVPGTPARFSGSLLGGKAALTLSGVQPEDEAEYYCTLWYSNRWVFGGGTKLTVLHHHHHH
T7 sequence (chain, as listed by the source): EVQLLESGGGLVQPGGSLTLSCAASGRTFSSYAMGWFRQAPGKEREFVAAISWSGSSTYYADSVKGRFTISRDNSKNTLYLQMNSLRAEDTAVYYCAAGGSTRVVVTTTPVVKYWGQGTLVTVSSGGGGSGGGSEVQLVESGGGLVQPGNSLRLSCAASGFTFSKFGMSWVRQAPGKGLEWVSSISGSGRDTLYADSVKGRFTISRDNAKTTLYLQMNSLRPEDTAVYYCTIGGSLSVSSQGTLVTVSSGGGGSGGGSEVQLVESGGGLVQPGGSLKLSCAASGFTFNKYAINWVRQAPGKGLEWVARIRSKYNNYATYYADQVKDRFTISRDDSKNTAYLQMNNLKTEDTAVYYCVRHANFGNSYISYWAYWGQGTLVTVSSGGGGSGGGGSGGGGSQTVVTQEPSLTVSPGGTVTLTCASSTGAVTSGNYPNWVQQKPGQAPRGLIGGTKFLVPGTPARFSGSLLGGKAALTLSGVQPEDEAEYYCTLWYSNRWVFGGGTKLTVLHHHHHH
T3 sequence (chain, as listed by the source): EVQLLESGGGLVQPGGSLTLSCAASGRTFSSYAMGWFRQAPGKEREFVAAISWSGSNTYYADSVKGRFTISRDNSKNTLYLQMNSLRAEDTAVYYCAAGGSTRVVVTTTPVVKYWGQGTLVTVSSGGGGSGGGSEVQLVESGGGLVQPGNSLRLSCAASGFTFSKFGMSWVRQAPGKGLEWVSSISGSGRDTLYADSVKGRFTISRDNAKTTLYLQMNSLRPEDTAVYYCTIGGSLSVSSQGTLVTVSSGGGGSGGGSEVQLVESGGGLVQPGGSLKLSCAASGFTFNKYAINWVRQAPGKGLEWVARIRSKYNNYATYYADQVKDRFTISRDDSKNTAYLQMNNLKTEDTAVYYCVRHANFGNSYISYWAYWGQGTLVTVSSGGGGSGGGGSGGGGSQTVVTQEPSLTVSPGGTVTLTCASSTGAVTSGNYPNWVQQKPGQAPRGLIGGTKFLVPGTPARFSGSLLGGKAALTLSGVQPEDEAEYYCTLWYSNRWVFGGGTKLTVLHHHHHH
T8 sequence (chain, as listed by the source): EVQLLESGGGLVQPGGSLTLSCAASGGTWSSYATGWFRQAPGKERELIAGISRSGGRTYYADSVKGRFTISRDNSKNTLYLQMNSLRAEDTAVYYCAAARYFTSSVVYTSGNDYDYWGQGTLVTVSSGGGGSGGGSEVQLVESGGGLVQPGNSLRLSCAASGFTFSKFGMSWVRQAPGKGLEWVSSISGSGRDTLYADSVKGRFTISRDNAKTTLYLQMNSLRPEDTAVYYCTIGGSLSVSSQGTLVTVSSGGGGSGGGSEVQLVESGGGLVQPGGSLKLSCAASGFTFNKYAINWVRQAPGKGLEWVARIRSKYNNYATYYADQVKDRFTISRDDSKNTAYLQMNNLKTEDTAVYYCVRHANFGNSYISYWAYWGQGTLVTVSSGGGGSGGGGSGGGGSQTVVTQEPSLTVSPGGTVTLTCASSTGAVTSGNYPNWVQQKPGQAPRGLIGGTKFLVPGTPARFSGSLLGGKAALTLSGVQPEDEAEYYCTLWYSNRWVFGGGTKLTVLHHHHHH
T11 sequence (chain, as listed by the source): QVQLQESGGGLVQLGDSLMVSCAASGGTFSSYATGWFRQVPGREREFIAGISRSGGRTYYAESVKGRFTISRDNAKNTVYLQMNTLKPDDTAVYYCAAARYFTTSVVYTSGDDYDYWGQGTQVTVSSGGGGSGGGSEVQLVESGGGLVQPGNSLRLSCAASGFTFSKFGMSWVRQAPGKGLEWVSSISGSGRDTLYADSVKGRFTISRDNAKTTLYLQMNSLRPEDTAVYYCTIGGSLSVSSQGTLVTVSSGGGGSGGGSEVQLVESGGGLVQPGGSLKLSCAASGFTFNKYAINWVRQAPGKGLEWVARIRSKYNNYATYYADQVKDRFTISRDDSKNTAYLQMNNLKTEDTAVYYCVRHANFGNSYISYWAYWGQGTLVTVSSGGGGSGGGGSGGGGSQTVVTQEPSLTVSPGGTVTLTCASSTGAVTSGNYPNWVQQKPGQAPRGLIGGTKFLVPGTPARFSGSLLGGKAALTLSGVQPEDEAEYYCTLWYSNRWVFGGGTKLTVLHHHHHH
T4 sequence (chain, as listed by the source): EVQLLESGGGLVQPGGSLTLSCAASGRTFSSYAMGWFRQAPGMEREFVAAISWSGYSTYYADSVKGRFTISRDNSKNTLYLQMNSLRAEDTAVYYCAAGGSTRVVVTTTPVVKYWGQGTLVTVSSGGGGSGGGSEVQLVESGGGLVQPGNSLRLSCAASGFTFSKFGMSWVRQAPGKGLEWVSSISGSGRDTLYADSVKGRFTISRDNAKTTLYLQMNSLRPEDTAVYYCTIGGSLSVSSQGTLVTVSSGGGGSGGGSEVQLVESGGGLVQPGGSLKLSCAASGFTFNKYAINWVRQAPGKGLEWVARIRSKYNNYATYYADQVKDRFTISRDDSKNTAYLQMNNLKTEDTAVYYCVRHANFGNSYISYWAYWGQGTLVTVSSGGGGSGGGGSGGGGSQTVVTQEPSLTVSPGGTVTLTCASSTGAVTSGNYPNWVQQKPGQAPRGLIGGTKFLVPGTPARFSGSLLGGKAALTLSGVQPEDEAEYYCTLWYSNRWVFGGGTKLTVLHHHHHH
T6 sequence (chain, as listed by the source): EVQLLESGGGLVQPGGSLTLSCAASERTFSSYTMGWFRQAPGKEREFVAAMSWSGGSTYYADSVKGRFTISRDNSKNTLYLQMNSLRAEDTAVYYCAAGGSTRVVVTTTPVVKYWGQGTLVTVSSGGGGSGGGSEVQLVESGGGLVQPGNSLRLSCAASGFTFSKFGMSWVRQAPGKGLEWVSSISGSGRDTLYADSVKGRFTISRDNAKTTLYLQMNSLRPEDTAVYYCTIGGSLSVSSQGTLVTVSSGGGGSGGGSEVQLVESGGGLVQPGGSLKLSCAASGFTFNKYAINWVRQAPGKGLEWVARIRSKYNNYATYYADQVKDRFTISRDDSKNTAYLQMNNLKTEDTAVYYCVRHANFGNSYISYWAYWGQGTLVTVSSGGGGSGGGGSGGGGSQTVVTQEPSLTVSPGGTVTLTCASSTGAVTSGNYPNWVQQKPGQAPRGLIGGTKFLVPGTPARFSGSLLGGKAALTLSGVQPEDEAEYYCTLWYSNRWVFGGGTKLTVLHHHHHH
T5 sequence (chain, as listed by the source): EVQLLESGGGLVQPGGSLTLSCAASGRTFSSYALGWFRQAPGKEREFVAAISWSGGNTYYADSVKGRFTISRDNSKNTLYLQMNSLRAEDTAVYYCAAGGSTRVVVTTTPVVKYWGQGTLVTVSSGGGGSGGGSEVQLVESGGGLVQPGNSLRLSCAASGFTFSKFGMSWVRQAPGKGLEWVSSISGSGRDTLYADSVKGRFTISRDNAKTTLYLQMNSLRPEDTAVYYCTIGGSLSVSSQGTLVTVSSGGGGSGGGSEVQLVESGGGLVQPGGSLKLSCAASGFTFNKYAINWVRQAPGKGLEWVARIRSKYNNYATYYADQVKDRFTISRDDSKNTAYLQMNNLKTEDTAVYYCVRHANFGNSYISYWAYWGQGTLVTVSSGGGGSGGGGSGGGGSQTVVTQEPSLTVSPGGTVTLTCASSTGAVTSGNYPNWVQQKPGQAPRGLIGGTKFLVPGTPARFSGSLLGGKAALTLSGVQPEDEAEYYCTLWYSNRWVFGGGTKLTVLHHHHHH
T9 sequence (chain, as listed by the source): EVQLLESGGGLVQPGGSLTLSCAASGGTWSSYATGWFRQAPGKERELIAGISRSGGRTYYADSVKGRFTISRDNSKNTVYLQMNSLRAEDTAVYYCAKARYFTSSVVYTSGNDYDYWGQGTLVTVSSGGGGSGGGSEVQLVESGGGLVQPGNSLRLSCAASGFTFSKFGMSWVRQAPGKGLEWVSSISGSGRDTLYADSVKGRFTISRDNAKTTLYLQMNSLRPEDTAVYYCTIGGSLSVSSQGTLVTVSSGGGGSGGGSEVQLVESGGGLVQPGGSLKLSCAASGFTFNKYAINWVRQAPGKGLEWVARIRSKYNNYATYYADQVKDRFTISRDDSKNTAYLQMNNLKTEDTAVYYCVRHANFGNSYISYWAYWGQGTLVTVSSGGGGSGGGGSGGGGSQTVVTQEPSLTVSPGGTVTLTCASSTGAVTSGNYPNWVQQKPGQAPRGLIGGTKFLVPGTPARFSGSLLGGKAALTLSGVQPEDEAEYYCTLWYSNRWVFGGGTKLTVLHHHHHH

B1: cynomolgus serum albumin (other, cynomolgus monkey, UniProt A2V9Z4 25-608, looked up)
chain: DTHKSEVAHRFKDLGEEHFKGLVLVAFSQYLQQCPFEEHVKLVNEVTEFAKTCVADESAENCDKSLHTLFGDKLCTVATLRETYGEMADCCAKQEPERNECFLQHKDDNPNLPPLVRPEVDVMCTAFHDNEATFLKKYLYEVARRHPYFYAPELLFFAARYKAAFAECCQAADKAACLLPKLDELRDEGKASSAKQRLKCASLQKFGDRAFKAWAVARLSQKFPKAEFAEVSKLVTDLTKVHTECCHGDLLECADDRADLAKYMCENQDSISSKLKECCDKPLLEKSHCLAEVENDEMPADLPSLAADYVESKDVCKNYAEAKDVFLGMFLYEYARRHPDYSVMLLLRLAKAYEATLEKCCAAADPHECYAKVFDEFQPLVEEPQNLVKQNCELFEQLGEYKFQNALLVRYTKKVPQVSTPTLVEVSRNLGKVGAKCCKLPEAKRMPCAEDYLSVVLNRLCVLHEKTPVSEKVTKCCTESLVNRRPCFSALELDEAYVPKAFNAETFTFHADMCTLSEKEKQVKKQTALVELVKHKPKATKEQLKGVMDNFAAFVEKCCKADDKEACFAEEGPKFVAASQAALA
Kd [1]: 4.4 nM

B2: FLL134 (VHH)
VHH: QVQLQESGGGLVQPGGSLRLSCAASGGTFSSYATGWFRQVPGKEREFIAGISRNSGRTYAESVKGRFTISRDNAKNTVYLQMNTLRPDDTAVYYCAAARYFTRDAIYTSGDDYDYWGQGTQVTASS
notes: llama anti-FLT3 variable domain; E. coli periplasmic extract
ELISA FLT3 (absorbance) [2]: 1.3 absorbance
FLT3/control [3]: 15 ratio

B3: biotinylated cynomolgus FLT3 protein (receptor, cynomolgus monkey)
chain: NQDLPVIKCVLINHKNNDSSVGKSSSYPMVSESPEDLGCALRPQSAGTVYEAATVEVDVSASITLQVLVDTPGNISCLWVFKHSSLNCQPHFDVQNRGVVSMVILKMTETQAGEYLLFIQSEATNYTIVFTVSIRNTLLFTLRRPYFRKMENQDALVCISESVPEPIVEWVLCDSQGESCKEESPAVVKKEEKVLHELFGTDIRCCARNELGRECTRLFTIDLNQTPQTTLPQLFLKVGEPLWIRCKAVHVNHGFGLTWELENKALEEGSYFEMSTYSTNRTMIRILFAFVSSVARNDTGYYTCSSSKHPSQSALVTIVEKGFINATNSSEDYEIDQYEEFCFSVRFKAYPQIRCTWTFSRKAFPCEQKALDDGYSVSKFCNHKHQPGEYIFHAENGDAQFTKMFTLNIRRKPQVLAEASASQASCSSDGYPLPSWTWKKCSDKSPNCTEDIPEGVWNRKANRKVFGQWVSSSTLNMSEAMKGFLVKCCAYNSLGTSCETILLNSPGPFPFIQDS
modifications: biotinylated (sites not given)
notes: loaded on streptavidin Octet tips; also called Cynomolgus Monkey FLT3
Kd [4]: 10 nM
Kd [5]: 35 nM
Kd [6]: 2.7 nM
Kd [7]: 19 nM
Kd [8]: 214 nM
Kd [9]: 161 nM
Kd [10]: 11.8 nM
Kd [11]: 7.8 nM
Kd [12]: 18 nM
Kd [13]: 34 nM
Kd [14]: 26 nM
Kd [15]: 2 nM
Kd [16]: 24 nM
Kd [17]: 102 nM

B4: FLL122 (VHH)
VHH: QVQLQESGGGLVQAGGSLMVSCAASGGTWSSYATGWFRQVPGKERELIAGISRSGGRTYYAESVKGRFTISRDNAKNTVYLQMNTLKPDDTAVYYCAAARYFTSSVVYTSGNDYDYWGQGTQVTVSS
notes: as for B2
ELISA FLT3 (absorbance) [2]: 4 absorbance
FLT3/control [3]: 26 ratio

B5: FLL153 (VHH)
VHH: QVQLQESGGGLVQVGGSLMVSCAASGGTFSSYATGWFRQVPGKEREFIAGVSRNSGRTYYAESVKGRFTISRDNAKNTVYLQMNTLKPDDTGVYYCAAARYFTRDAVYTSGDDYDYWGQGTQVTVSS
notes: as for B2
ELISA FLT3 (absorbance) [2]: 1.4 absorbance
FLT3/control [3]: 15 ratio
